B1: Neuroligin-1 (Mus musculus), Q99K10-1 (parent)
chain: MALPRCMWPNYVWRAMMACVVHRGSGAPLTLCLLGCLLQTFHVLSQKLDDVDPLVTTNFGKIRGIKKELNNEILGPVIQFLGVPYAAPPTGEHRFQPPEPPSPWSDIRNATQFAPVCPQNIIDGRLPEVMLPVWFTNNLDVVSSYVQDQSEDCLYLNIYVPTEDGPLTKKHTDDLGDNDGAEDEDIRDSGGPKPVMVYIHGGSYMEGTGNLYDGSVLASYGNVIVITVNYRLGVLGFLSTGDQAAKGNYGLLDLIQALRWTSENIGFFGGDPLRITVFGSGAGGSCVNLLTLSHYSEGNRWSNSTKGLFQRAIAQSGTALSSWAVSFQPAKYARILATKVGCNVSDTVELVECLQKKPYKELVDQDVQPARYHIAFGPVIDGDVIPDDPQILMEQGEFLNYDIMLGVNQGEGLKFVENIVDSDDGVSASDFDFAVSNFVDNLYGYPEGKDVLRETIKFMYTDWADRHNPETRRKTLLALFTDHQWVAPAVATADLHSNFGSPTYFYAFYHHCQTDQVPAWADAAHGDEVPYVLGIPMIGPTELFPCNFSKNDVMLSAVVMTYWTNFAKTGDPNQPVPQDTKFIHTKPNRFEEVAWTRYSQKDQLYLHIGLKPRVKEHYRANKVNLWLELVPHLHNLNDISQYTSTTTKVPSTDITLRPTRKNSTPVTSAFPTAKQDDPKQQPSPFSVDQRDYSTELSVTIAVGASLLFLNILAFAALYYKKDKRRHDVHRRCSPQRTTTNDLTHAPEEEIMSLQMKHTDLDHECESIHPHEVVLRTACPPDYTLAMRRSPDDIPLMTPNTITMIPNTIPGIQPLHTFNTFTGGQNNTLPHPHPHPHSHSTTRV

Variants of: B1
Details: with NRXN1, P58400-1
Sequence of NRXN1, P58400-1 (P58400 other isoform, or with tags, fused parts or gaps): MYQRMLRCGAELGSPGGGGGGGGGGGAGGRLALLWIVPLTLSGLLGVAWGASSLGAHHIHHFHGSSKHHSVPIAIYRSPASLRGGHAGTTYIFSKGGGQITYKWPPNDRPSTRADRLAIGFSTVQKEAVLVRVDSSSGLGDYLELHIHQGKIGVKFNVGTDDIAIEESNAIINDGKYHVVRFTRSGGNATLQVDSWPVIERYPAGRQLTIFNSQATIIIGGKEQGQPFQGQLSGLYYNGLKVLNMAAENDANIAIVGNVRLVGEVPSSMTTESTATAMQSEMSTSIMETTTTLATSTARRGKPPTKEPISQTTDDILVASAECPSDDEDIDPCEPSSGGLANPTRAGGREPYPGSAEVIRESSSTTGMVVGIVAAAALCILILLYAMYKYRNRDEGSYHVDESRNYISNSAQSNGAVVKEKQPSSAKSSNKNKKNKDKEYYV
With E397A the “effect of a mutation on the interaction” value was “disrupting interaction”. With N400A the “effect of a mutation on the interaction” value was “disrupting interaction”.

From IntAct's records for PubMed 18084303
